The values that follow come from US12679878B2, “CRF2 receptor agonists and their use in therapy” (SANOFI, priority 2020, dated 2026).

This experiment concerns the target T1, CRF1R receptor (anti-target) (UniProt P34998 24-415, limits assumed).
T1 sequence (looked up): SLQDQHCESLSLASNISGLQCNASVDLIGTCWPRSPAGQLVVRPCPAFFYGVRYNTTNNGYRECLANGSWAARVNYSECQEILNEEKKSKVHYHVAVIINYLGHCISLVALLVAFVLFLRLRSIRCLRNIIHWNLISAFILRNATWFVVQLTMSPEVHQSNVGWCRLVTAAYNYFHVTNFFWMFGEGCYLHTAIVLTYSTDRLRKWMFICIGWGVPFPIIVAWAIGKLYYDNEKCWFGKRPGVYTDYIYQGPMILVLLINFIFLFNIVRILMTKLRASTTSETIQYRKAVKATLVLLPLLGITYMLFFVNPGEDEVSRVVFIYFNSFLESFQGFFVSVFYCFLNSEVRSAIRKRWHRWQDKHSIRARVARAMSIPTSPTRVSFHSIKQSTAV
In words: cell-based or functional assay.

Starred links: 1 amine or outer side, 2 acyl side, 3 side chain; linkers in the order of their positions; H or OH if unused. Non-standard residues stand in square brackets, D forms with d. Groups on a side chain read outwards from the residue. No end group written: not given here. *: point of attachment. C20 diacid = O=C(O)CCCCCCCCCCCCCCCCCCC(=O)*; C16 diacid = O=C(O)CCCCCCCCCCCCCCC(=O)*; γGlu = O=C(O)[C@H](CCC(=O)[*:2])N[*:1]; Palmitoyl = CCCCCCCCCCCCCCCC(=O)*; AEEA = NCCOCCOCC(=O)O; Aib = CC(C)(N)C(=O)O Some results are limits rather than exact numbers.

As for IVLSLD[dV]PTKLK([γGlu-Palmitoyl])QKLLKQERQRKERE[Aib]AEKNKRILERV-NH2 [peptide of SEQ ID NO: 225], the “EC50 [nM] 0% HSA (cAMP, HTRF)” value came out at 24.2 nM and the “Emax (%) (100% = Sauvagine at 100 nM)” value is 58.9%.

B1: peptide of SEQ ID NO: 226 (peptide)
peptide: IVLSLD[dV]PIGLK([γGlu-Palmitoyl])QKLLKQQRQRKERQQAEKNKRILERV-NH2
modifications: N-terminus assumed
SMILES: CCCCCCCCCCCCCCCC(=O)N[C@@H](CCC(=O)NCCCC[C@H](NC(=O)[C@H](CC(C)C)NC(=O)CNC(=O)[C@@H](NC(=O)[C@@H]1CCCN1C(=O)[C@H](NC(=O)[C@H](CC(=O)O)NC(=O)[C@H](CC(C)C)NC(=O)[C@H](CO)NC(=O)[C@H](CC(C)C)NC(=O)[C@@H](NC(=O)[C@@H](N)[C@@H](C)CC)C(C)C)C(C)C)[C@@H](C)CC)C(=O)N[C@@H](CCC(N)=O)C(=O)N[C@@H](CCCCN)C(=O)N[C@@H](CC(C)C)C(=O)N[C@@H](CC(C)C)C(=O)N[C@@H](CCCCN)C(=O)N[C@@H](CCC(N)=O)C(=O)N[C@@H](CCC(N)=O)C(=O)N[C@@H](CCCNC(=N)N)C(=O)N[C@@H](CCC(N)=O)C(=O)N[C@@H](CCCNC(=N)N)C(=O)N[C@@H](CCCCN)C(=O)N[C@@H](CCC(=O)O)C(=O)N[C@@H](CCCNC(=N)N)C(=O)N[C@@H](CCC(N)=O)C(=O)N[C@@H](CCC(N)=O)C(=O)N[C@@H](C)C(=O)N[C@@H](CCC(=O)O)C(=O)N[C@@H](CCCCN)C(=O)N[C@@H](CC(N)=O)C(=O)N[C@@H](CCCCN)C(=O)N[C@@H](CCCNC(=N)N)C(=O)N[C@H](C(=O)N[C@@H](CC(C)C)C(=O)N[C@@H](CCC(=O)O)C(=O)N[C@@H](CCCNC(=N)N)C(=O)N[C@H](C(N)=O)C(C)C)[C@@H](C)CC)C(=O)O
On to B1, for which the “EC50 [nM] 0% HSA (cAMP, HTRF)” value was 96.2 nM and the “Emax (%) (100% = Sauvagine at 100 nM)” value was determined as 84%.

B2: peptide of SEQ ID NO: 197 (peptide)
peptide: IVLSLD[dV]PIKLK([γGlu-C16 diacid])QILLKQARQK[Aib]QRAQAEKNKRILERV-NH2
modifications: N-terminus assumed
SMILES: CC[C@H](C)[C@H](N)C(=O)N[C@H](C(=O)N[C@@H](CC(C)C)C(=O)N[C@@H](CO)C(=O)N[C@@H](CC(C)C)C(=O)N[C@@H](CC(=O)O)C(=O)N[C@@H](C(=O)N1CCC[C@H]1C(=O)N[C@H](C(=O)N[C@@H](CCCCN)C(=O)N[C@@H](CC(C)C)C(=O)N[C@@H](CCCCNC(=O)CC[C@H](NC(=O)CCCCCCCCCCCCCCC(=O)O)C(=O)O)C(=O)N[C@@H](CCC(N)=O)C(=O)N[C@H](C(=O)N[C@@H](CC(C)C)C(=O)N[C@@H](CC(C)C)C(=O)N[C@@H](CCCCN)C(=O)N[C@@H](CCC(N)=O)C(=O)N[C@@H](C)C(=O)N[C@@H](CCCNC(=N)N)C(=O)N[C@@H](CCC(N)=O)C(=O)N[C@@H](CCCCN)C(=O)NC(C)(C)C(=O)N[C@@H](CCC(N)=O)C(=O)N[C@@H](CCCNC(=N)N)C(=O)N[C@@H](C)C(=O)N[C@@H](CCC(N)=O)C(=O)N[C@@H](C)C(=O)N[C@@H](CCC(=O)O)C(=O)N[C@@H](CCCCN)C(=O)N[C@@H](CC(N)=O)C(=O)N[C@@H](CCCCN)C(=O)N[C@@H](CCCNC(=N)N)C(=O)N[C@H](C(=O)N[C@@H](CC(C)C)C(=O)N[C@@H](CCC(=O)O)C(=O)N[C@@H](CCCNC(=N)N)C(=O)N[C@H](C(N)=O)C(C)C)[C@@H](C)CC)[C@@H](C)CC)[C@@H](C)CC)C(C)C)C(C)C
Take B2: the “EC50 [nM] 0% HSA (cAMP, HTRF)” value was > 100 nM and the “Emax (%) (100% = Sauvagine at 100 nM)” value turned out to be 24.4%.

B3: peptide of SEQ ID NO: 196 (peptide)
peptide: IVLSLD[dV]PIGLK([γGlu-C16 diacid])QILLKQERQKK[Aib]REQAEKNKRILERV-NH2
modifications: N-terminus assumed
SMILES: CC[C@H](C)[C@H](N)C(=O)N[C@H](C(=O)N[C@@H](CC(C)C)C(=O)N[C@@H](CO)C(=O)N[C@@H](CC(C)C)C(=O)N[C@@H](CC(=O)O)C(=O)N[C@@H](C(=O)N1CCC[C@H]1C(=O)N[C@H](C(=O)NCC(=O)N[C@@H](CC(C)C)C(=O)N[C@@H](CCCCNC(=O)CC[C@H](NC(=O)CCCCCCCCCCCCCCC(=O)O)C(=O)O)C(=O)N[C@@H](CCC(N)=O)C(=O)N[C@H](C(=O)N[C@@H](CC(C)C)C(=O)N[C@@H](CC(C)C)C(=O)N[C@@H](CCCCN)C(=O)N[C@@H](CCC(N)=O)C(=O)N[C@@H](CCC(=O)O)C(=O)N[C@@H](CCCNC(=N)N)C(=O)N[C@@H](CCC(N)=O)C(=O)N[C@@H](CCCCN)C(=O)N[C@@H](CCCCN)C(=O)NC(C)(C)C(=O)N[C@@H](CCCNC(=N)N)C(=O)N[C@@H](CCC(=O)O)C(=O)N[C@@H](CCC(N)=O)C(=O)N[C@@H](C)C(=O)N[C@@H](CCC(=O)O)C(=O)N[C@@H](CCCCN)C(=O)N[C@@H](CC(N)=O)C(=O)N[C@@H](CCCCN)C(=O)N[C@@H](CCCNC(=N)N)C(=O)N[C@H](C(=O)N[C@@H](CC(C)C)C(=O)N[C@@H](CCC(=O)O)C(=O)N[C@@H](CCCNC(=N)N)C(=O)N[C@H](C(N)=O)C(C)C)[C@@H](C)CC)[C@@H](C)CC)[C@@H](C)CC)C(C)C)C(C)C
Consider B3, for which the “EC50 [nM] 0% HSA (cAMP, HTRF)” value is > 100 nM and the “Emax (%) (100% = Sauvagine at 100 nM)” value was 16.9%.
For IVLSLD[dV]PTKLK([AEEA-AEEA-γGlu-C20 diacid])KKLLKQERKR[Aib]EREKAEKAARILERV-NH2 [peptide of SEQ ID NO: 224] the same measures were > 100 nM and 52.6%.

B4: peptide of SEQ ID NO: 223 (peptide)
peptide: IVLSLD[dV]PTKLK([γGlu-Palmitoyl])QKLLKQERQRKEREQAEKNKRILERV-NH2
modifications: N-terminus assumed
SMILES: CCCCCCCCCCCCCCCC(=O)N[C@@H](CCC(=O)NCCCC[C@H](NC(=O)[C@H](CC(C)C)NC(=O)[C@H](CCCCN)NC(=O)[C@@H](NC(=O)[C@@H]1CCCN1C(=O)[C@H](NC(=O)[C@H](CC(=O)O)NC(=O)[C@H](CC(C)C)NC(=O)[C@H](CO)NC(=O)[C@H](CC(C)C)NC(=O)[C@@H](NC(=O)[C@@H](N)[C@@H](C)CC)C(C)C)C(C)C)[C@@H](C)O)C(=O)N[C@@H](CCC(N)=O)C(=O)N[C@@H](CCCCN)C(=O)N[C@@H](CC(C)C)C(=O)N[C@@H](CC(C)C)C(=O)N[C@@H](CCCCN)C(=O)N[C@@H](CCC(N)=O)C(=O)N[C@@H](CCC(=O)O)C(=O)N[C@@H](CCCNC(=N)N)C(=O)N[C@@H](CCC(N)=O)C(=O)N[C@@H](CCCNC(=N)N)C(=O)N[C@@H](CCCCN)C(=O)N[C@@H](CCC(=O)O)C(=O)N[C@@H](CCCNC(=N)N)C(=O)N[C@@H](CCC(=O)O)C(=O)N[C@@H](CCC(N)=O)C(=O)N[C@@H](C)C(=O)N[C@@H](CCC(=O)O)C(=O)N[C@@H](CCCCN)C(=O)N[C@@H](CC(N)=O)C(=O)N[C@@H](CCCCN)C(=O)N[C@@H](CCCNC(=N)N)C(=O)N[C@H](C(=O)N[C@@H](CC(C)C)C(=O)N[C@@H](CCC(=O)O)C(=O)N[C@@H](CCCNC(=N)N)C(=O)N[C@H](C(N)=O)C(C)C)[C@@H](C)CC)C(=O)O
As for B4, the “EC50 [nM] 0% HSA (cAMP, HTRF)” value was found to be 82.8 nM and the “Emax (%) (100% = Sauvagine at 100 nM)” value worked out at 57.3%.

B5: peptide of SEQ ID NO: 195 (peptide)
peptide: IVLSLD[dV]PIGLK([γGlu-C16 diacid])QILLKQERQKK[Aib]RQQAETNKRILERV-NH2
modifications: N-terminus assumed
SMILES: CC[C@H](C)[C@H](N)C(=O)N[C@H](C(=O)N[C@@H](CC(C)C)C(=O)N[C@@H](CO)C(=O)N[C@@H](CC(C)C)C(=O)N[C@@H](CC(=O)O)C(=O)N[C@@H](C(=O)N1CCC[C@H]1C(=O)N[C@H](C(=O)NCC(=O)N[C@@H](CC(C)C)C(=O)N[C@@H](CCCCNC(=O)CC[C@H](NC(=O)CCCCCCCCCCCCCCC(=O)O)C(=O)O)C(=O)N[C@@H](CCC(N)=O)C(=O)N[C@H](C(=O)N[C@@H](CC(C)C)C(=O)N[C@@H](CC(C)C)C(=O)N[C@@H](CCCCN)C(=O)N[C@@H](CCC(N)=O)C(=O)N[C@@H](CCC(=O)O)C(=O)N[C@@H](CCCNC(=N)N)C(=O)N[C@@H](CCC(N)=O)C(=O)N[C@@H](CCCCN)C(=O)N[C@@H](CCCCN)C(=O)NC(C)(C)C(=O)N[C@@H](CCCNC(=N)N)C(=O)N[C@@H](CCC(N)=O)C(=O)N[C@@H](CCC(N)=O)C(=O)N[C@@H](C)C(=O)N[C@@H](CCC(=O)O)C(=O)N[C@H](C(=O)N[C@@H](CC(N)=O)C(=O)N[C@@H](CCCCN)C(=O)N[C@@H](CCCNC(=N)N)C(=O)N[C@H](C(=O)N[C@@H](CC(C)C)C(=O)N[C@@H](CCC(=O)O)C(=O)N[C@@H](CCCNC(=N)N)C(=O)N[C@H](C(N)=O)C(C)C)[C@@H](C)CC)[C@@H](C)O)[C@@H](C)CC)[C@@H](C)CC)C(C)C)C(C)C
Take B5: the “EC50 [nM] 0% HSA (cAMP, HTRF)” value is > 100 nM and the “Emax (%) (100% = Sauvagine at 100 nM)” value came to 17.1%.
